Test results reported in patent publication US20250051474A1, “ANTI-CD97 ANTIBODIES AND ANTIBODY-DRUG CONJUGATES” (New York University, priority 2023, published 2025).

T1: CD97 isoform 1 (Homo sapiens, UniProt P48960)
T1 construct: The genes encoding the ectodomains of CD97 (isoforms 1 and 2) and EMR2 (isoforms 1 and 4); inferred from IMAC purification; inferred from BirA biotinylation; made in house; host or cells: expi293F
T1 sequence (P48960 21-552 limits assumed): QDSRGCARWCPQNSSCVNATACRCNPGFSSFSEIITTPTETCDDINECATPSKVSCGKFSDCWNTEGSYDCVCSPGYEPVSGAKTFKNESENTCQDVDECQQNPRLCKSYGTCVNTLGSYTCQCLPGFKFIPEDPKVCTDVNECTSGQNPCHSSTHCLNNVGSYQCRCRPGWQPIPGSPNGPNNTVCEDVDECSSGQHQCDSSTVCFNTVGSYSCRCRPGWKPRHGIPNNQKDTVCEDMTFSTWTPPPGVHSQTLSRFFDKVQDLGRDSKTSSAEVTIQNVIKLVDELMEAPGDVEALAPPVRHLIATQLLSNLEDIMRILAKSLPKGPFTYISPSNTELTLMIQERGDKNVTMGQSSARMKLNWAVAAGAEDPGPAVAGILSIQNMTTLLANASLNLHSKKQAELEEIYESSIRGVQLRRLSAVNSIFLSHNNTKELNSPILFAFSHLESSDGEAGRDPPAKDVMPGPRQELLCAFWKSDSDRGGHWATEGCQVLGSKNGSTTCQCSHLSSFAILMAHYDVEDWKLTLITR

T2: CD97 (ADGRE5) isoform 1 ectodomain, purified and biotinylated (human, UniProt P48960 21-552, limits assumed, biotinylated in vitro using the BirA enzyme)
T2 construct: the whole entry for isoform 1 is named here; also called CD97 isoform 1; Biotinylated CD97 isoform 1
T2 sequence: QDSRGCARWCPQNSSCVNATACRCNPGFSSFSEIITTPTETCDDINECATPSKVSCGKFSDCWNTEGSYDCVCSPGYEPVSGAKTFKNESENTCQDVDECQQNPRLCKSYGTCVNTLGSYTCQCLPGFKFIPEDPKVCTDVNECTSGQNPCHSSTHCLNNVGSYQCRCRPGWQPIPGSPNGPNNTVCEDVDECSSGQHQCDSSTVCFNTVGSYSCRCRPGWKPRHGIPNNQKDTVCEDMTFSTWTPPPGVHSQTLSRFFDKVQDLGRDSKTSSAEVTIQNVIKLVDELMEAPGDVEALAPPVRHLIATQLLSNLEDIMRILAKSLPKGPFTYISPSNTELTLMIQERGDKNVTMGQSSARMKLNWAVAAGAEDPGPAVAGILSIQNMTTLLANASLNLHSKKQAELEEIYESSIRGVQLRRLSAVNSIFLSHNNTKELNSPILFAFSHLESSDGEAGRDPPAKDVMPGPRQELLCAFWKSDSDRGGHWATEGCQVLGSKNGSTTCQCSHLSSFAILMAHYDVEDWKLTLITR

T3: CD97 (ADGRE5) isoform 2 ectodomain, purified and biotinylated (human, UniProt P48960 21-552, biotinylated in vitro using the BirA enzyme)
T3 construct: the whole entry for isoform 2 is named here; also called CD97 isoform 2
T3 sequence: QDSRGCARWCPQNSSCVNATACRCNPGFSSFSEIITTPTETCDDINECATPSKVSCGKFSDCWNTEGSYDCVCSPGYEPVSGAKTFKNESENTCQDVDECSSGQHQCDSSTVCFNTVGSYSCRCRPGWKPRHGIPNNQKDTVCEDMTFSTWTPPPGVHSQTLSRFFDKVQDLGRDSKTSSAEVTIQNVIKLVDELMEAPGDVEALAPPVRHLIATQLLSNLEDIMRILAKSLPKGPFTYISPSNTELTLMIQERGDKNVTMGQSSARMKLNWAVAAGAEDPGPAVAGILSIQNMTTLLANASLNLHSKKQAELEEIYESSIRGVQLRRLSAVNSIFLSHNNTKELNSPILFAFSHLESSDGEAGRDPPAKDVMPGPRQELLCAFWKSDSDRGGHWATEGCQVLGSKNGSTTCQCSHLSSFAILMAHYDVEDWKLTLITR

T4: EMR2 (EGF-like module-containing mucin-like hormone receptor-like 2) isoform 4 ectodomain, purified and … (UniProt Q9UHX3-4 24-447, limits assumed, biotinylated in vitro using the BirA enzyme)
T4 construct: extracellular domain; Close homolog of CD97 used as specificity control
T4 sequence (looked up): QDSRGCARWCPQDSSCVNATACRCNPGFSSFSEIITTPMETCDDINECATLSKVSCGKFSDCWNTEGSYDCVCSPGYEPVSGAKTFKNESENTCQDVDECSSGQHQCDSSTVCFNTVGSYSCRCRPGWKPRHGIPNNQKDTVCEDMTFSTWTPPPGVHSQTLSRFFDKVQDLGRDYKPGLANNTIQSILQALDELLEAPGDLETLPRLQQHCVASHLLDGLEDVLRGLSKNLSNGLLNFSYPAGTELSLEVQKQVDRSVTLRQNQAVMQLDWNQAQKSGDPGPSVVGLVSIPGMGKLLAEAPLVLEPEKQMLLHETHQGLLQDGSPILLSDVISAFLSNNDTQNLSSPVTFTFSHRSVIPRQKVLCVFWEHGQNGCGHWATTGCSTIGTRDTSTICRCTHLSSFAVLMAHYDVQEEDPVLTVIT


How the values were obtained:
[1] = molecular target: T1, CD97 isoform 1; assay: Bead-based binding assay of Fab clones; conditions: for binding of A8 CDRH3 mutants to CD97 isoform 1: Fab format, compared with wild type A8
Method: Binding titration of the Fab clones was performed by a bead binding assay, as described previously (7,8). Briefly, biotinylated antigens were immobilized on Dynabeads M-280 streptavidin (Thermo Fisher). The biotinylated Fab clones were titrated into a solution containing the antigen-coated beads. After incubation, the beads were washed three times and incubated with anti-human F(ab′)2-Alexa Fluor 647 (Jackson ImmunoResearch). The beads were further washed three times and analyzed on a HyperCyt (Intellicyt).
The genes encoding the ectodomains of CD97 (isoforms 1 and 2) and EMR2 (isoforms 1 and 4) (FIG. 1) were synthesized (Integrated DNA Technologies) and cloned into the mammalian expression vector pBCAG. The expi293F cells (Thermo Fisher) were transfected with the vectors using the ExpiFectamine 293 transfection kit (Thermo Fisher) according to the manufacturer's protocol. The cells were incubated at 37° C. with 8% CO2. The proteins were purified from the cell culture supernatant by immobilized metal affinity chromatography (IMAC). The purified proteins were biotinylated in vitro using the BirA enzyme in the presence of 0.5 mM Biotin and 10 mM ATP. After the removal of the BirA enzyme by IMAC, the proteins were further purified by size exclusion chromatography using a Superdex 200 10/300 Increase (Cytiva). The purity of the proteins was confirmed by SDS-PAGE.

[2] = molecular target: T2, CD97 (ADGRE5) isoform 1 ectodomain, …; assay: bead-based binding titration (biotinylated antigen on streptavidin beads, flow cytometry), 1:1 fit [Continued]
[3] = molecular target: T3, CD97 (ADGRE5) isoform 2 ectodomain, …; assay: as above
[4] = molecular target: T4, EMR2 (EGF-like module-containing …); assay: bead-based binding titration (biotinylated antigen on streptavidin beads, flow cytometry)
[5] = molecular target: T2, CD97 (ADGRE5) isoform 1 ectodomain, …; assay: bead-based binding titration (biotinylated antigen on streptavidin beads, flow cytometry), 1:1 fit
[6] = molecular target: T3, CD97 (ADGRE5) isoform 2 ectodomain, …; assay: as above

Molecule	binding of A8 CDRH3 mutants to CD97 isoform 1 [1]	binding result [4]	Kd [5]	Kd [6]	also measured
C27: anti-CD97 antibody clone, VL SEQ ID NO: 21, VH SEQ ID NO: 46 (antibody, V domains shown) VH: EVQLVESGGGLVQPGGSLRLSCAASGFTLSSSSIHWVRQAPGKGLEWVASIYSYYGSTYYADSVKGRFTISADTSKNTAYLQMNSLRAEDTAVYYCARYRGNMYYWESWYGSYWALDYWGQGTLVTVSS VL: DIQMTQSPSSLSASVGDRVTITCRASQSVSSAVAWYQQKPGKAPKLLIYSASSLYSGVPSRFSGSRSGTDFTLTISSLQPEDFATYYCQQSSSSLITFGQGTKVEIKRTV					binding to CD97 isoform 1 ([1]; Fab clones of the first antibody discovery campaign, purified biotinylated antigen on beads): bound only to CD97 isoform 1
A8 W100eHA: A8 mutant, VL SEQ ID NO: 9, VH SEQ ID NO: 110 (antibody, V domains shown) VH: EVQLVESGGGLVQPGGSLRLSCAASGFTISSYSIHWVRQAPGKGLEWVASISPYYGSTSYADSVKGRFTISADTSKNTAYLQMNSLRAEDTAVYYCARSWYYYEQNPYAYQKEEQALDYWGQGTLVTVSS VL: DIQMTQSPSSLSASVGDRVTITCRASQSVSSAVAWYQQKPGKAPKLLIYSASSLYSGVPSRFSGSRSGTDFTLTISSLQPEDFATYYCQQSVYSPVTFGQGTKVEIKRTV	substantially reduced or abolished binding to CD97				
A8 N100bHE: A8 mutant, VL SEQ ID NO: 9, VH SEQ ID NO: 109 (antibody, V domains shown) VH: EVQLVESGGGLVQPGGSLRLSCAASGFTISSYSIHWVRQAPGKGLEWVASISPYYGSTSYADSVKGRFTISADTSKNTAYLQMNSLRAEDTAVYYCARSWYYYEQEPYWYQKEEQALDYWGQGTLVTVSS VL: DIQMTQSPSSLSASVGDRVTITCRASQSVSSAVAWYQQKPGKAPKLLIYSASSLYSGVPSRFSGSRSGTDFTLTISSLQPEDFATYYCQQSVYSPVTFGQGTKVEIKRTV	substantially reduced or abolished binding to CD97				
A8 Y100fHA: A8 mutant, VL SEQ ID NO: 9, VH SEQ ID NO: 111 (antibody, V domains shown) VH: EVQLVESGGGLVQPGGSLRLSCAASGFTISSYSIHWVRQAPGKGLEWVASISPYYGSTSYADSVKGRFTISADTSKNTAYLQMNSLRAEDTAVYYCARSWYYYEQNPYWAQKEEQALDYWGQGTLVTVSS VL: DIQMTQSPSSLSASVGDRVTITCRASQSVSSAVAWYQQKPGKAPKLLIYSASSLYSGVPSRFSGSRSGTDFTLTISSLQPEDFATYYCQQSVYSPVTFGQGTKVEIKRTV	substantially reduced or abolished binding to CD97				
Fab D9 (Fab, V domains shown, first discovery campaign; also called Antibody Clone D9) VH: EVQLVESGGGLVQPGGSLRLSCAASGFTVSSSSIHWVRQAPGKGLEWVASISSYYGYTSYADSVKGRFTISADTSKNTAYLQMNSLRAEDTAVYYCARYPMFSYYYWYYGMDYWGQGTLVTVSS VL: DIQMTQSPSSLSASVGDRVTITCRASQSVSSAVAWYQQKPGKAPKLLIYSASSLYSGVPSRFSGSRSGTDFTLTISSLQPEDFATYYCQQSSGYPVTFGQGTKVEIKR					Kd [2]: 3.4 nM; Kd [3]: 3.6 nM
Fab 2Z3 (Fab, V domains shown, second discovery campaign; biotinylated Fab in the bead assay; also called Antibody Clone 2Z3) VH: EVQLVESGGGLVQPGGSLRLSCAASGFTFSSSSIHWVRQAPGKGLEWVASISSSSGSTSYADSVKGRFTISADTSKNTAYLQMNSLRAEDTAVYYCARVLLGKFWYYNYYEYSAMDYWGQGTLVTVSS VL: DIQMTQSPSSLSASVGDRVTITCRASQSVSSAVAWYQQKPGKAPKLLIYSASSLYSGVPSRFSGSRSGTDFTLTISSLQPEDFATYYCQQSSSSLITFGQGTKVEIKR		no binding (tested: 50 nM)	7.1 nM	7.1 nM	
Fab 2X10 (Fab, V domains shown, second discovery campaign; biotinylated Fab in the bead assay; also called Antibody Clone 2X10) VH: EVQLVESGGGLVQPGGSLRLSCAASGFTFSSSSIHWVRQAPGKGLEWVASISSSSGSTSYADSVKGRFTISADTSKNTAYLQMNSLRAEDTAVYYCARSYWDMYIYWYYYVKQSRGMDYWGQGTLVTVSS VL: DIQMTQSPSSLSASVGDRVTITCRASQSVSSAVAWYQQKPGKAPKLLIYSASSLYSGVPSRFSGSRSGTDFTLTISSLQPEDFATYYCQQSSSSLITFGQGTKVEIKR		no binding (tested: 100 nM)	54 nM	41 nM	
Fab D12 (Fab, V domains shown, first discovery campaign; also called Antibody Clone D12) VH: EVQLVESGGGLVQPGGSLRLSCAASGFTFSSSSIHWVRQAPGKGLEWVASISSSSGSTSYADSVKGRFTISADTSKNTAYLQMNSLRAEDTAVYYCARIRHYHWYEIPYWDWAIDYWGQGTLVTVSS VL: DIQMTQSPSSLSASVGDRVTITCRASQSVSSAVAWYQQKPGKAPKLLIYSASSLYSGVPSRFSGSRSGTDFTLTISSLQPEDFATYYCQQSSSSLITFGQGTKVEIKR					Kd [2]: 3 nM; Kd [3]: 3.2 nM
Fab 2A5 (Fab, V domains shown, second discovery campaign; biotinylated Fab in the bead assay; also called Antibody Clone 2A5) VH: EVQLVESGGGLVQPGGSLRLSCAASGFTFSSSSIHWVRQAPGKGLEWVASISSSYGSTSYADSVKGRFTISADTSKNTAYLQMNSLRAEDTAVYYCARGWAYSYWYYSHYYEYEVALDYWGQGTLVTVSS VL: DIQMTQSPSSLSASVGDRVTITCRASQSVSSAVAWYQQKPGKAPKLLIYSASSLYSGVPSRFSGSRSGTDFTLTISSLQPEDFATYYCQQSKFSSPVTFGQGTKVEIKR		no binding (tested: 50 nM)	2.6 nM	2 nM	
Fab 2X12 (Fab, V domains shown, second discovery campaign; biotinylated Fab in the bead assay; also called Antibody Clone 2X12) VH: EVQLVESGGGLVQPGGSLRLSCAASGFTISSSSIHWVRQAPGKGLEWVASISSSSSYTSYADSVKGRFTISADTSKNTAYLQMNSLRAEDTAVYYCARMDISYYYYEWGFESAYYGMDYWGQGTLVTVSS VL: DIQMTQSPSSLSASVGDRVTITCRASQSVSSAVAWYQQKPGKAPKLLIYSASSLYSGVPSRFSGSRSGTDFTLTISSLQPEDFATYYCQQWWGPELVTFGQGTKVEIKR		no binding (tested: 100 nM)	22 nM	29 nM	
